Data published in patent US9738726B2, “HER2-specific monoclonal antibodies and conjugates thereof” (The United States of America, as represented by the …, priority 2013, dated 2017).
“Also recorded” adds a separate entry of the source. Where a SMILES comes first, the peptide text is derived from it. [ ]: non-standard residue; d: D form. The star is where a group is joined. ξ: configuration not given here. Dolaproine = CO[C@@H]([C@@H]1CCCN1)[C@@H](C)C(=O)O; Dil = CC[C@H](C)[C@H](NC)[C@@H](CC(=O)O)OC; NMe2Val = CC(C)[C@@H](C(=O)*)N(C)C; ξV = CC(C)C(N)C(=O)O; X1 = NOCCOCCOCCN*

B1: M860 IgG1: Her2-specific human monoclonal antibody from naïve phage display Fab library, VH SEQ ID NO: 2, VL SEQ ID NO: 4, converted to full size human IgG1 (antibody, V domains shown)
VH: EVQLVQSGAEVKKPGESLKISCKGSGYSFTSYWIGWVRQMPGKGLEWMGIIYPGDCDRSDTRYSPSFQGQVTISADKSISTAYLQWSSLKASDTAMYYCARQYSGYDRYYFDYWGQGTLVTVSS
VL: QTVVTQEPSFSVSPGGTVTLTCGLNSGSVSTRHYPSWYQQTPGQAPRTLIYSTDICDRRSSGAPSHISGSILGNKAALTITGAQADDASDYYCALYLGNGIAVFGSGTKVTVLG
modifications: IgG1 constant regions without entry

Tests used:
[1] = test system: MCF-7 cells (do not express Her2); assay: In vitro cytotoxicity assay, MCF-7 cells; type: cell-based; conditions: 72 hours, FIG. 7B
Method: (§1) In Vitro Cytotoxicity Assay
(§2) SKBR3, MCF-7 and JIMT-1 cells were cultured and assayed in DMEM (Life Technologies) with 10% (vol/vol) FBS (Gibco), 100 IU/mL penicillin, and 100 µg/mL streptomycin (Life Technologies). For the cytotoxicity assays, the cancer cell lines were plated in 96-well plates at ˜1,000 cells in 70 μL per well in culture medium and incubated overnight at 37° C. and 5% CO2. Drugs (m860 IgG1, m860 ADC and free drug nAF) were filtered (0.22 μm; Millipore) and 30 μl of serially diluted drugs in culture medium were added into the wells in duplicate and incubated at 37° C. for 72 hours. Colorimetric reagent (Promega) was then added to each well. After a 3-hour incubation at 37° C., the absorbance at 490 nm was measured, and IC50 was determined by GraphPad Prism.

[2] = target: T1, cell surface-associated Her2 (Homo sapiens, UniProt P04626); assay: Binding to cell surface-associated Her2; conditions: compared with trastuzumab (Herceptin)
T1 construct: endogenous in cells

Her2 on SKBR3 cells = target: T2, Her2 on SKBR3 cells (Homo sapiens, UniProt P04626); assay: Flow cytometry binding to Her2 on SKBR3 cells; conditions: FIGS. 6A-6B
T2 construct: SKBR3 breast cancer cells, which overexpress Her2, were detached in cell dissociation buffer; endogenous in cells; host or cells: SKBR3 breast cancer cells
Method: SKBR3 breast cancer cells, which overexpress Her2, were detached in cell dissociation buffer and rinsed in PBS. […] Unbound antibodies were washed away with PBSA. The secondary antibody, goat anti-human IgG conjugated with PE (Sigma), was diluted at 1:100 and incubated with cells on ice for 30 minutes. Cells were washed and resuspended in PBSA buffer for flow cytometry analysis on FACSCalibur (Becton Dickinson).

Her2 = Her2 (Homo sapiens, UniProt P04626); assay: Competition with Herceptin / epitope comparison; type: binding
[3] = target: T3, Her2-ECD-Fc fusion protein (Homo sapiens, UniProt P04626); assay: Phage ELISA screening of clones panned against Her2-ECD-Fc; type: binding; conditions: five unique clones after third round of biopanning
T3 construct: three rounds of panning against a recombinant Her2 protein ectodomain; purchased R&D systems
Method: A naïve human Fab phage display library (a total of about […] members), constructed from peripheral blood B cells of 10 healthy donors, was used for selection of Fabs against Her2-ECD-Fc fusion protein (R&D systems) conjugated to magnetic beads (DYNABEADS™ M-270 epoxy, Invitrogen). […] After each round of incubation, the beads were washed 5 times for the first round and 15 times for the later rounds with phosphate-buffered saline containing 0.05% Tween 20 (PBST) to remove nonspecifically bound phage. The bead-bound phage were mixed with TG1 cells for 1 hour at 37° C., and the phage was amplified from the infected cells and used in the next round of biopanning. After the third round of biopanning, 190 clones were randomly picked and monoclonal phage was prepared and used for phage ELISA screening to identify the positive binders. […] The nucleotide and amino acid sequences of the m860 VH and VL domains are set forth herein as SEQ ID NOs: 1-4.

[4] = test system: SKBR3 cells (overexpress Her2); assay: In vitro cytotoxicity assay, SKBR3 cells; type: cell-based; conditions: 72 hours, FIG. 7A, listed as WT m860 IgG1
Method: as §1, §2

FcγRI (CD64) = FcγRI (CD64) (Homo sapiens, UniProt P12314); assay: Surface plasmon resonance (Biacore) binding to FcγRI (CD64); conditions: SPR, FcγRI immobilized on CM5 chip, 25° C., 1:1 model
Sequence of FcγRI (CD64) (P12314 16-374, species assumed): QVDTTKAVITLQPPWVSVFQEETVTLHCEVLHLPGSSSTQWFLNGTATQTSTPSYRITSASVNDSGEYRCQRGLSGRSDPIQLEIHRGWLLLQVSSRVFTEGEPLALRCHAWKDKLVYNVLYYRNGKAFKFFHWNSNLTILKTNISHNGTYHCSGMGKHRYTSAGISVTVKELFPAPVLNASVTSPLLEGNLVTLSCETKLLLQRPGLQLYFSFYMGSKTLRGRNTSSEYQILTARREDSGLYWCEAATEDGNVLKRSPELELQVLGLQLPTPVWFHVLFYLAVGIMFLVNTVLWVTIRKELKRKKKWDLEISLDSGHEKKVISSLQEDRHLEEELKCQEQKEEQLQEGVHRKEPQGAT
Method: (§3) Comparison of the Binding Affinities of m860 and m860 ADC to FcγRIII (CD16) and FcγRI (CD64) Measured by Surface Plasmon Resonance
(§4) Interactions between the antibodies and CD16 and CD64 were analyzed by surface plasmon resonance technology using a Biacore™ X100 instrument (GE healthcare). CD16 or CD64 was covalently immobilized onto a sensor chip (CM5) using carbodiimide coupling chemistry. A control reference surface was prepared for nonspecific binding and refractive index changes. For analysis of the kinetics of interactions, varying concentrations of antibodies were injected at flow rate of 30 μL/min using running buffer containing 10 mmol/L HEPES, 150 mmol/L NaCl, 3 mmol/L EDTA, and 0.05% Surfactant P-20 (pH=7.4). The association and dissociation phase data were fitted simultaneously to a 1:1 model by using BIAevaluation 3.2. All the experiments were done at 25° C.

[5] = test system: JIMT-1 cells (moderate Her2 expression, trastuzumab-resistant patient); assay: In vitro cytotoxicity assay, JIMT-1 cells; type: cell-based; conditions: 72 hours, FIG. 7C
Method: as §1, §2

FcγRIII (CD16) = assay: Surface plasmon resonance (Biacore) binding to FcγRIII (CD16); conditions: SPR, FcγRIII immobilized on CM5 chip, 25° C., 1:1 model
Method: as §3, §4

Molecule | cytotoxicity [1] | affinity for cell surface-associated Her2 [2] | binding activity to Her2 on SKBR3 cells before and after nAF conjugation (Her2 on SKBR3 cells) | competition with Herceptin / epitope relative to trastuzumab (Her2) | binding activity in phage ELISA screening [3] | cytotoxicity [4] | Kd (FcγRI (CD64)) [nM] | ka (FcγRI (CD64)) [M⁻¹ s⁻¹] | kd (FcγRI (CD64)) [s⁻¹] | cytotoxicity [5] | Kd (FcγRIII (CD16)) [nM] | ka (FcγRIII (CD16)) [M⁻¹ s⁻¹] | kd (FcγRIII (CD16)) [s⁻¹]
CC[C@H](C)[C@@H]([C@@H](CC(=O)N1CCC[C@H]1[C@H](OC)[C@@H](C)C(=O)N[C@@H](Cc1ccccc1)C(=O)NCCOCCOCCON)OC)N(C)C(=O)C(NC(=O)[C@H](C(C)C)N(C)C)C(C)C (stereo partly shown) [nAF, Auristatin F with a non-cleavable linker attached at the C-terminus] (NMe2Val-[ξV][Dil][Dolaproine]F-X1) | significant cytotoxicity | – | – | – | – | – | – | – | – | – | – | – | –
B1 | – | comparable to that of trastuzumab | not impacted by nAF conjugation | binds to a different epitope | highest binding activity | did not exhibit any cytotoxicity; also recorded: did not show any cytotoxicity | 22.5 | 44790 | 0.001007 | little effect | 1500 | 11080 | 0.01608
